Assay results: the RNAGym collection of RNA variant scans (doi:10.7554/elife.90254)

B1: OR4K15 (parent)
chain: GUUAACGGUCAUAGGCCAUGGAAACUAGGAGCACCAUUUCGCUGCCAGUGAAGAAAUGAACAAAGAAAAUCUGGGCCAGGCAGGCAUCAAAAGAAAUAGUCUUGCGCUCAACCAGAAAGUCUGUAAUCAUUUUAAGGGUA

Variants of: B1
Assay: self-cleavage, relative activity (ratio to wild type); higher = more cleavage; in vitro, sequencing; the parent is a self-cleaving ribozyme

Variant | self-cleavage
GUUAACGGUCAUAGGCCAUGGAAACUAGGAGCACCAUUUCGCUGCCAGUGAAGAAAUGAACAAAGAAAAUCUGGGCCAGGCAGGCAUCAAAAGAAAUAGUCUUGCGCUCAACCAGAAAGUCUGUAAUCGUUUUGAGGGUA [A129G A134G] | 1.15
GUUAACGGUCAUAGGCCAUGGAAACUAGGAGCACCAUUUCGCUGCCAGUGAAGAAAUGAACAAAGGAAAUCUGGGCCAGGCAGGCAUCAAAAGAAAUAGUCUUGCGCUCAACCAGAAAGUCUGUAAUCAUUUUAAGGAUA [A66G G138A] | 1.26
GUUAACGGUCAUAGGCCAUGGAAACUAGGAGCACCAUUUCGCUGCCAGUGAAGAAAUGAACAAAGAAAAUCUGGGCCAGGCAGGCAUCAAAAGAAAUAGUCUUGCACUCAACCAGAAUGUCUGUAAUCAUUUUAAGGGUA [G106A A118U] | 0
GUUAACGGUCAUAGGCCAUGGAAACUAGGAGCACCAUUUCGCUGCCAGUGAAGAAAUGAACAAAGAAAAUCUGGGCCACGCAGGCAUCAAAAGAAAUAGUCUUGCGCUCAACCAGAAAGACUGUAAUCAUUUUAAGGGUA [G79C U120A] | 0.04
GUUAACGGUCAUAGGCCAUGGAAACUAGGAGCACCAUUUCGCUGCCAGUGAAGAAAUGAACAAAGAAAAUCUUGGCCAGGCAGGCAUCAAAAGAAAUAGUCUUGCGCCCAACCAGAAAGUCUGUAAUCAUUUUAAGGGUA [G73U U108C] | 0.02
GUUAACGGUCAUAGGCCAUGGAAACUAGGAGCACCGUUUCGCUGCCAGUGAAGAAAUGAACAAAGAAUAUCUGGGCCAGGCAGGCAUCAAAAGAAAUAGUCUUGCGCUCAACCAGAAAGUCUGUAAUCAUUUUAAGGGUA [A36G A68U] | 1.65
GUUAACGGUCAUAGGCCAUGGAAACUAGGAGCACCAUUUCGCUGCCAGUGAAGAAACGAACAAAGAAAAUCUGGGCCAGGCAGGCAUCAAAAGAAAUAGUCUUGCGCUCAACCAGAAAGUUUGUAAUCAUUUUAAGGGUA [U57C C121U] | 2.46
GUUAACGGUCAUAGGCCAUGGAAGCUAGGAGCACCAUUUCGCUGCCAGUGAAGAAAUGAACAAAGAAAAUCUGGGCCAGGCCGGCAUCAAAAGAAAUAGUCUUGCGCUCAACCAGAAAGUCUGUAAUCAUUUUAAGGGUA [A24G A82C] | 0.25
GUUAACGGACAUAGGCCAUGGAAACUAGGAGCACCAUUUCGCUGCCAGUGAAGAAAUGAACAAAGAAAAUCUGGGCCAGGCAGGCAUCAAAAGAAAUAGUCUUGCGCUCGACCAGAAAGUCUGUAAUCAUUUUAAGGGUA [U9A A110G] | 0.22
GUUAACGGUCAUAGGCCAUGGAAACUAGGAGCACCAUUCCGCUGCCAGUGAAGAAAUGAACAAAGAAUAUCUGGGCCAGGCAGGCAUCAAAAGAAAUAGUCUUGCGCUCAACCAGAAAGUCUGUAAUCAUUUUAAGGGUA [U39C A68U] | 2.09
GUUAACGGUCAUAGGCCAUGGAAACUAGGAGCACCAUUUCGCUGCCAGUGAAGAAAUGAUCAAAGAAAAUCUGGGCCAGGCAGGCAUCAAAAGGAAUAGUCUUGCGCUCAACCAGAAAGUCUGUAAUCAUUUUAAGGGUA [A60U A94G] | 1.5
GUUAACGGUCAUAGGCCAUGGAAACUAGGAGCACCCUUUCGCUGCCAGCGAAGAAAUGAACAAAGAAAAUCUGGGCCAGGCAGGCAUCAAAAGAAAUAGUCUUGCGCUCAACCAGAAAGUCUGUAAUCAUUUUAAGGGUA [A36C U49C] | 1.28
GUUAACGGUCAUAGGCCAUGGAAACUAGGAGCACCAUUACGCUGCCAGUGAAGAAAUGAACAAAGAAAAUCUGGGCCAGGCAGGCAUCAAAGGAAAUAGUCUUGCGCUCAACCAGAAAGUCUGUAAUCAUUUUAAGGGUA [U39A A92G] | 0.92
GUUAACGGUCAUAGGCCAUGGAAACUAGGAGCACCAUUUCGCUGCCAGUGAAGAAAUGAACAAAGAAAAUCUGGGCCAGGCAGGCAUCAAAAGAAUUAGUCUUGCGCUCAGCCAGAAAGUCUGUAAUCAUUUUAAGGGUA [A96U A111G] | 0.04
GUUAACGGUCAUAGGCCAUGGAAACUAGGAGCACCAUUUCGCUGCCAGUGAAGAAAUGAACAAAGAAAAUCUGGGCCAGGCAGGCAUCAAAAGAAAUAGUCUUGCGCUCAACCAGAAAGUCUGUAAUCAUUUUAAAGGUA [G136A] | 1.34
GUUAACGGUCAUAGGCCAUGGAAACUAGGAGCACCACUUCGCUGCCAGUGAGGAAAUGAACAAAGAAAAUCUGGGCCAGGCAGGCAUCAAAAGAAAUAGUCUUGCGCUCAACCAGAAAGUCUGUAAUCAUUUUAAGGGUA [U37C A52G] | 1.4
GUUAACGGUCAUAGGCCAUGGAAACUAGGAGCACCAUUUCGCUGCCAGUGAAGAAAUGAACAAAGAAAAUCUGGGCCAGGCAGGCAUCAAAAGAAAUAGUCUUGCGCUCAACCAGAAAGUCAGUAAUCAUUCUAAGGGUA [U122A U132C] | 2.13
GUUAACGGUCACAGGCCAUGGAAACUAGGAGCACCAUUUCGCUGCCAGUGAAGAAAUGAACAAAGAAAAUCUGGGCCUGGCAGGCAUCAAAAGAAAUAGUCUUGCGCUCAACCAGAAAGUCUGUAAUCAUUUUAAGGGUA [U12C A78U] | 0.34
GUUAACGGUCAUAGGCCAUGGAAACUAGGAGCACCAUUUCGCUGCCAGUGAAGAAAUGAACAAUGAAAAUCUGGGCCAGGCAGGCAUCAAAAGAAAUAGUCUUGCGCUCAGCCAGAAAGUCUGUAAUCAUUUUAAGGGUA [A64U A111G] | 0.04
GUUAACGGUCAUUGGCCAUGGAAACUAGGAGCACCAUUUCGCUGCCAGUGAAGAGAUGAACAAAGAAAAUCUGGGCCAGGCAGGCAUCAAAAGAAAUAGUCUUGCGCUCAACCAGAAAGUCUGUAAUCAUUUUAAGGGUA [A13U A55G] | 0.85
